{"source": "paper PMC6563020", "about": "“Protein Redox State Monitoring Studies of Thiol Reactivity” (Antioxidants, 2019)", "binders": {"B1": {"name": "Human peroxiredoxin 6 (Prx6), P30041 1-224 (enzyme)", "chain": "MPGGLLLGDVAPNFEANTTVGRIRFHDFLGDSWGILFSHPRDFTPVCTTELGRAAKLAPEFAKRNVKLIALSIDSVEDHLAWSKDINAYNCEEPTEKLPFPIIDDRNRELAILLGMLDPAEKDEKGMPVTARVVFVFGPDKKLKLSILYPATTGRNFDEILRVVISLQLTAEKRVATPVDWKDGDSVMVLPTIPEEEAKKLFPKGVFTKELPSGKKYLRYTPQP"}, "B2": {"name": "Cyclic nucleotide-binding domain (CNBD) of human HCN4 (hHCN4) (domain or fragment, UniProt Q9Y3Q4 571-708, looked up)", "chain": "GELSEPLREEIINFNCRKLVASMPLFANADPNFVTSMLTKLRFEVFQPGDYIIREGTIGKKMYFIQHGVVSVLTKGNKETKLADGSYFGEICLLTRGRRTASVRADTYCRLYSLSVDNFNEVLEEYPMMRRAFETVAL", "notes": "two cysteines; 19 kDa; Subcloned into pETM11; the printed mass of 19 kDa is more than that of residues 571-708 alone, which may mean that the tag was kept; also called hHCN4 CNBD; CNBD domain of hHCN4 channels; source: E. coli BL21 (DE3), purified (Ni2+-NTA, size-exclusion chromatography)"}, "B3": {"name": "Rat peroxiredoxin 6 (Prx6) (enzyme, UniProt O35244 1-224, looked up)", "chain": "MPGGLLLGDEAPNFEANTTIGHIRFHDFLGDSWGILFSHPRDFTPVCTTELGRAAKLAPEFAKRNVKLIALSIDSVEDHFAWSKDINAYNGAAPTEKLPFPIIDDKDRDLAILLGMLDPAEKDEKGMPVTARVVFIFGPDKKLKLSILYPATTGRNFDEILRVVDSLQLTASNPVATPVDWKKGESVMVLPTLPEEEAKQLFPKGVFTKELPSGKKYLRYTPQP", "notes": "Peroxiredoxin 6, rat, one cysteine only (catalytic Cys47); also called rat Prx6; source: endogenous, rat pulmonary artery smooth muscle cells (Cell Applications), in lysate"}}, "key": {"[1]": {"target": "T1, Human peroxiredoxin 6 (Prx6) (human (endogenous in human pulmonary artery smooth muscle cells)), P30041", "T1 chain": "B1 chain", "assay": "SDS-PAGE and immunoblot; lysate proteins from untreated human pulmonary artery smooth muscle cells denatured with SDS and incubated with H2O2 (or BME) in a test tube for 15 min; Protein-SHifter Plus added, SDS-PAGE, immunoblot with Prx6 antibody", "settings": "remark: other sources report otherwise"}, "[2]": {"target": "T1, Human peroxiredoxin 6 (Prx6) (human …)", "assay": "non-reducing SDS-PAGE and immunoblot; untreated (or PDGF-treated) human pulmonary artery smooth muscle cells; TCA-precipitated lysates labelled with Protein-SHifter Plus, SDS-PAGE without BME, immunoblot with Prx6 antibody", "settings": "remark: other sources report otherwise"}, "[3]": {"target": "T1, Human peroxiredoxin 6 (Prx6) (human …)", "assay": "non-reducing SDS-PAGE and immunoblot; human pulmonary artery smooth muscle cells, with or without deferoxamine (50 uM, 30 min) and H2O2 (15 min); lysates on SDS-PAGE with or without 5% BME, immunoblot with Prx6 antibody; no Protein-SHifter", "settings": "remark: other sources report otherwise"}, "[4]": {"target": "the molecule itself", "assay": "non-reducing SDS-PAGE with Coomassie staining; purified recombinant CNBD, untreated or treated with H2O2 (1 mM) for 15 min; SDS-PAGE, Coomassie Blue; no Protein-SHifter"}, "[5]": {"target": "the molecule itself", "assay": "SDS-PAGE and immunoblot; untreated rat pulmonary artery smooth muscle cells; lysates on SDS-PAGE, immunoblot with Prx6 antibody; no Protein-SHifter"}}, "note": "“And” between values parts separate entries of the source, which are not always exact repeats. Identical values can stand only once.", "data": [{"binder": "B1", "values": [{"measurement": "stoichiometry N", "setting": "[1]", "value": 2}, {"measurement": "stoichiometry N", "setting": "[2]", "value": "2 and 3"}, {"measurement": "stoichiometry N", "setting": "[3]", "value": 2}]}, {"binder": "B2", "values": [{"measurement": "stoichiometry N", "setting": "[4]", "value": "2 and 3"}]}, {"binder": "B3", "values": [{"measurement": "stoichiometry N", "setting": "[5]", "value": 2}]}]}
